Measurements from patent publication US12491259B2, “Anti-variable MUC1* antibodies and uses thereof” (Minerva Biotechnologies Corporation, priority 2022, dated 2025).

What was measured:
[1] = system: T47D-MUC1* breast cancer tumors; test: Breast cancer xenograft, IVIS bioluminescence; format: in vivo, NOD/SCID/GAMMA (NSG) mice; details: from Day 6, 10 mg/kg, DAR 4.2
Experimental: (§1) FIGS. 57A-57F show bioluminescence photographs of female NOD/SCID/GAMMA (NSG) mice, implanted with 90-day estrogen pellets and then implanted on the right flank with 1M human breast cancer cells that were either T47D wild-type cells that express low to medium levels of MUC1* or T47D-MUC1* cells that had been engineered to express more MUC1*. Day 7 post tumor implantation, the animals were injected with MNC2-MMAE, DAR 3.9, at 5 mg/kg, but was increased to 10 mg/kg for the Day 14 and Day 20 injections.
as §1, with “58A-58F” for “57A-57F”, “MN20A10-MMAE,” for “MNC2-MMAE,”, “3.0,” for “3.9,”
(§2) FIGS. 63A-63H show bioluminescence photographs of female NOD/SCID/GAMMA (NSG) mice, implanted with 90-day estrogen pellets and then implanted on the right flank with 1M human breast cancer cells that were either T47D wild-type cells that express low to medium levels of MUC1* or T47D-MUC1* cells that had been engineered to express more MUC1*. […]

[2] = system: T47D-wt breast cancer tumors; test: Breast cancer xenograft, IVIS bioluminescence; format: in vivo, NOD/SCID/GAMMA (NSG) mice; details: from Day 6, 10 mg/kg increased to 20 mg/kg, DAR 4.2
Experimental: as §1
as §1, with “58A-58F” for “57A-57F”, “MN20A10-MMAE,” for “MNC2-MMAE,”, “3.0,” for “3.9,”
as §2

B1: MNC2-Deruxtecan (conjugate)
VH: EVQLVESGGGLVKPGGSLRLSCAASGFTFSGYAMSWVRQAPGKGLEWVSTISSGGTYIYYPDSVKGRFTISRDNAKNSLYLQMNSLRAEDTAVYYCARLGGDNYYEYFDVWGKGTTVTVSS
VL: DIVLTQSPASLAVSPGQRATITCRASKSVSTSGYSYMHWYQQKPGQPPKLLIYLASNLESGVPARFSGSGSGTDFTLTINPVEANDTANYYCQHSRELPFTFGGGTKVEIKRT
tumor burden (bioluminescence) [1]: essentially eliminated by Day 26
tumor burden (bioluminescence) [2]: greatly reduced compared to the controls
